From article PMC10980815, “Cell surface patching via CXCR4-targeted nanothreads for cancer metastasis inhibition” (Nature Communications, 2024)
Ends that are not written are not given here. HPMA copolymer = HPMA copolymer made by RAFT copolymerization of HPMA with N-(3-aminopropyl)methacrylamide (APMA), bearing maleimide groups for grafting

What was measured:
[1] = tested on: orthotopic 4T1 breast tumors; experiment: Tumor accumulation of Cy5-labeled nanothreads (IVIS imaging, excised tumors); format: in vivo, female BALB/c mice
Procedure: For in vitro studies, 4T1 cells (2 × 10^5 cells) were seeded on coverslips (NEST Biotechnology) for attachment. Subsequently, the cells were treated with i) Cy5-labeled P-CM1 (P-CM1-Cy5) for 1 h, followed by incubation in cell culture medium for an additional 1 h, ii) Cy5-labeled P-BS-CM1 (P-BS-CM1-Cy5) for 1 h, followed by incubation in cell culture medium for an additional 1 h, or iii) P-BS-CM1-Cy5 for 1 h, followed by Cy3-labeled P-CM2 (P-CM2-Cy3) for an additional 1 h (5 nM Cy5 and 5 nM Cy3 equivalence), respectively. Following the treatments, cells were washed three times with PBS, stained with DAPI, and observed using a confocal microscope. For in vivo studies, 4T1 cells (1 × 10^6) were injected into the third mammary fat pad of female BALB/c mice (6–8 weeks, 20 ± 2 g) (n = 3) on day 0 to establish orthotopic breast tumor models. For investigation of CXCR4 binding, mice on day 14 (tumor volume, ~200 mm^3) were intravenously injected with P-CM1-Cy5 or P-BS-CM1-Cy5 (equivalent Cy5 dose, 5 nmol/mouse, n = 3). Whole-body living imaging at 24, 48, and 72 h post-administration as well as excised tumors at the end point, were captured using the IVIS optical imaging system (IVIS Lumina Series III, PerkinElmer, USA). For the analysis of CM1/CM2 biorecognition in the second step, 4T1 tumor-bearing mice (tumor volume, ~200 mm^3) were intravenously injected with Cy5 labeled P-CM2 (P-CM2-Cy5) alone on day 15, or pre-injected P-BS-CM1 on day 14 followed by intravenous injection of P-CM2-Cy5 on day 15 (equivalent Cy5 dose, 5 nmol/mouse, n = 3). Whole-body living imaging at 24 and 48 h post-P-CM2-Cy5 administration, as well as excised tumors at the end point, were captured using the IVIS optical imaging system. For further investigation, mice (tumor volume, ~200 mm^3) were intravenously injected with P-BS-CM1-Cy5 on day 14 and then P-CM2-Cy3 on day 15 (5 nmol of Cy5 and 5 nmol of Cy3 per mouse). One day later, tumor tissues were collected for frozen sectioning and further observation by confocal microscope.
(§1) Three distinct delivery approaches were implemented in 4T1 tumor-bearing female BALB/c mice (6–8-week, tumor volume~200 mm^3, n = 5 per group). i) Consecutive delivery: Nanothread-1 and nanothread-2 were sequentially administered via intravenously injection with a 24 h time interval. ii) Simultaneous delivery: Nanothread-1 and Nanothread-2 were concurrently administered through two tail veins of one mouse. iii) Post-assembly delivery: Nanothread-1 and Nanothread-2 were pre-mixed before intravenous injection (5 nmol of Cy5 and 5 nmol of Cy3 per mouse). For the tumor accumulation study, whole-body living imaging was conducted at 24, 48, and 72 h post-administration of Cy5-labeled Nanothread. Additionally, excised tumors were imaged at the end point using the IVIS optical imaging system. For the pharmacokinetics study, blood samples were extracted at predetermined time points post-administration of fluorescence-labeled Nanothread, n = 5 per group. The fluorescent intensity in blood samples was measured with a microplate reader at the wavelengths of Cy5 (Ex: 630 nm, Em: 670 nm) and Cy3 (Ex: 530 nm, Em: 570 nm). Pharmacokinetic parameters, including half-life (T1/2z), area under curve (AUC), and mean residence time (MRT), were calculated using DAS 2.0 software.

ζ-potential (Zetasizer) = format: physicochemical; conditions: Malvern Zetasizer Nano ZS90; mean ± SD
Procedure: (§2) The average molecular weight (Mw) and polydispersity (PDI) of the HPMA copolymer conjugates were determined by gel permeation chromatography (GPC) on an AKTA purifier equipment with a Superose 6 10/300 GL analytical column (GE Healthcare, USA) and a differential refraction detector (KNAUER, 2300, Germany). Hydrodynamic sizes and zeta potentials were determined using a Malvern Zetasizer Nano ZS90 equipment (Malvern Instruments Ltd, Malvern, UK). The contents of BS, CM1, and CM2 were determined using a bicinchoninic acid (BCA) protein assay. The PS concentration was determined by ultraviolet-visible (UV-Vis) spectroscopy at its characteristic absorbance peak (660 nm).

[2] = Pharmacokinetics upon consecutive, simultaneous and post-assembly delivery; format: in vivo, female BALB/c mice; conditions: for T1/2z: blood fluorescence, mean ± SD, n = 5; for AUC0-t / AUC0-∞ / MRT0-t / MRT0-∞: same
Procedure: as §1

[3] = Hydrodynamic size / size distribution by dynamic light scattering; format: physicochemical; conditions: Malvern Zetasizer Nano ZS90, mean ± SD
Procedure: as §2
To investigate the coiled-coil assembly, varying CM1-to-CM2 ratios (3:1, 1:1, and 1:3) of P-BS-CM1 and P-CM2 were mixed in 10 mM PBS (pH 7.4) at 25 °C for 10 min. The total polymer concentration was kept constant at 10 mg/mL. Circular dichroism spectra, size distribution, and rheological properties of P-BS-CM1, P-CM2, and their mixture were measured. The surface morphology of P-BS-CM1 and the mixture (P-BS-CM1 + P-CM2) was observed using scanning electron microscopy. Additionally, for the FRET assay, CM1-to-CM2 equimolar of P-BS-CM1-Cy5 and P-CM2-Cy3 were mixed in 10 mM PBS (pH 7.4) at 25 °C for 10 min. Fluorescent spectra of P-BS-CM1-Cy5, P-CM2-Cy3, and the mixture (P-BS-CM1-Cy5+P-CM2-Cy3) were recorded at the Cy3 excitation wavelength of 550 nm.

P-CM2-Cy5: Cy5 labeled P-CM2 (C(HPMA copolymer)YGGEVSALEKEVSALEKKNSALEKEVSALEKEVSALEK; also: Cy5 label on conjugate, position not given here)
tumor accumulation of Nanothread-2 (Fig. 5b, excised tumors) ([1]; P-CM2-Cy5 i.v. 5 nmol Cy5/mouse 24 h after saline or P-BS-CM1, IVIS at end point (48 h), animal 1 of 3): 1.72 | tumor accumulation of Nanothread-2 (Fig. 5b, excised tumors) ([1]; P-CM2-Cy5 i.v. 5 nmol Cy5/mouse 24 h after saline or P-BS-CM1, IVIS at end point (48 h), animal 1 of 3, listed as G3): 0.962 | tumor accumulation of Nanothread-2 (Fig. 5b, excised tumors) ([1]; same, animal 2 of 3): 1.74 | tumor accumulation of Nanothread-2 (Fig. 5b, excised tumors) ([1]; same, animal 2 of 3, listed as G3): 0.787 | tumor accumulation of Nanothread-2 (Fig. 5b, excised tumors) ([1]; same, animal 3 of 3): 1.49 | tumor accumulation of Nanothread-2 (Fig. 5b, excised tumors) ([1]; same, animal 3 of 3, listed as G3): 0.495 | ζ-potential (ζ-potential (Zetasizer)): -8.94±0.45 mV | T1/2z ([2]; Consecutive delivery (24 h interval) with unlabeled partner nanothread, i.v., 4T1 tumor-bearing mice, 5 nmol Cy5/mouse, DAS 2.0): 20.232 ± 6.5 h | AUC0-t ([2]; Consecutive delivery): 2807.529 ± 561.373 ng·h/mL | AUC0-∞ ([2]; Consecutive delivery): 2999.46 ± 668.451 ng·h/mL | MRT0-t ([2]; Consecutive delivery): 15.196 ± 1.358 h | MRT0-∞ ([2]; Consecutive delivery): 21.117 ± 3.236 h | T1/2z ([2]; Post-assembly delivery (pre-mixed with unlabeled partner nanothread before i.v. injection)): 14.142 ± 3.54 h | AUC0-t ([2]; Post-assembly delivery): 1356.51 ± 241.624 ng·h/mL | AUC0-∞ ([2]; Post-assembly delivery): 1374.981 ± 237.509 ng·h/mL | MRT0-t ([2]; Post-assembly delivery): 8.789 ± 0.154 h | MRT0-∞ ([2]; Post-assembly delivery): 10.384 ± 0.829 h | T1/2z ([2]; Simultaneous delivery (two tail veins, 0 h) with unlabeled partner nanothread, i.v.): 17.583 ± 4.307 h | AUC0-t ([2]; Simultaneous delivery): 1339.808 ± 201.879 ng·h/mL | AUC0-∞ ([2]; Simultaneous delivery): 1385.53 ± 238.655 ng·h/mL | MRT0-t ([2]; Simultaneous delivery): 9.919 ± 0.611 h | MRT0-∞ ([2]; Simultaneous delivery): 12.694 ± 2.736 h | Size [3]: 19.8±0.7 nm

P-CM2: HPMA copolymer-CM2 conjugate, ~12 CM2 grafts per polymer (C(HPMA copolymer)YGGEVSALEKEVSALEKKNSALEKEVSALEKEVSALEK; also: CM2 N-terminal cysteine joined to a maleimide of the HPMA copolymer backbone, ~12 per polymer)
ζ-potential (ζ-potential (Zetasizer)): -8.73±0.34 mV | Size [3]: 19.2±0.7 nm

P-PS-CM2: HPMA backbone grafted with CM2 and chlorin e6 photosensitizer (C(HPMA copolymer)YGGEVSALEKEVSALEKKNSALEKEVSALEKEVSALEK; also: chlorin e6 photosensitizer on polymer)
ζ-potential (ζ-potential (Zetasizer)): -11.21±1.24 mV | Size [3]: 25.8±1.2 nm

B1: P-BS-CM1: linear HPMA polymer backbone grafted with CXCR4 binding sequence (BS) and coiled motif CM1 (conjugate)
chain 1: LGASWHRPDKCCLGYQKRPLPA
chain 2: C(HPMA copolymer)YGGKVSALKEKVSALKEEVSANKEKVSALKEKVSALKE
modifications: not fully specified (some residues); also: BS cysteines (Cys11, Cys12) joined to maleimides of the HPMA copolymer backbone, ~6 per polymer, CM1 N-terminal cysteine joined to a maleimide of the HPMA copolymer backbone, ~4 per polymer
ζ-potential (ζ-potential (Zetasizer)): -5.67±0.79 mV | Size [3]: 17.5±2.1 nm
